The source of these data is paper PMC10198859.

Starred links: 1 amine or outer side, 2 acyl side, 3 side chain; linkers in the order of their positions; H or OH if unused. No end group written: not given here. *: point of attachment. Suc = O=C(CCC(=O)[*:2])[*:1]; For = O=C*

The target in this experiment is murine TLR2/TLR6 (mouse (endogenous in RAW 264.7 and P388.D1)) (UniProt Q9QUN7).
UniProt Q9QUN7, sequence (Q9QUN7 25-784, chain 1 of 2): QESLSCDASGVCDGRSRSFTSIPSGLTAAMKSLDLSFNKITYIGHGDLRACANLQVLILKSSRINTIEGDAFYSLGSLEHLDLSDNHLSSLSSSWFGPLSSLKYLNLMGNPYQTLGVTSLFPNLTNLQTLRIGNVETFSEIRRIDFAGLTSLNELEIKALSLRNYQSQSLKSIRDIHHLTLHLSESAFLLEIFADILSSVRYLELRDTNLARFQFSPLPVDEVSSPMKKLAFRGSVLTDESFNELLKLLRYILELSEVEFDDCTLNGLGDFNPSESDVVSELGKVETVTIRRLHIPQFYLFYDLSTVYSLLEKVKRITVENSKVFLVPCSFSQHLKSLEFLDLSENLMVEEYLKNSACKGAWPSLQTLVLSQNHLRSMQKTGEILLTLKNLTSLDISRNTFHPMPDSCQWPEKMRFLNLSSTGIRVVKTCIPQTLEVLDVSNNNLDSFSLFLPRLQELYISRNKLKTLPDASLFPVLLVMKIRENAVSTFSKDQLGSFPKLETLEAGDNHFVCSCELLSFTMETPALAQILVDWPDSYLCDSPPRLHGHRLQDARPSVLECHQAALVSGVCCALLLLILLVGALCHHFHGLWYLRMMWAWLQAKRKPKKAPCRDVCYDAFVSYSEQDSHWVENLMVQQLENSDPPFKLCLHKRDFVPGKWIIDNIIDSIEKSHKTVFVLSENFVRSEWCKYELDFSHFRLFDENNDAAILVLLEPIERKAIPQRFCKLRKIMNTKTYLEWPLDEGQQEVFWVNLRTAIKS
UniProt Q9QUN7, sequence (Q9EPW9 28-795, chain 2 of 2, further chain): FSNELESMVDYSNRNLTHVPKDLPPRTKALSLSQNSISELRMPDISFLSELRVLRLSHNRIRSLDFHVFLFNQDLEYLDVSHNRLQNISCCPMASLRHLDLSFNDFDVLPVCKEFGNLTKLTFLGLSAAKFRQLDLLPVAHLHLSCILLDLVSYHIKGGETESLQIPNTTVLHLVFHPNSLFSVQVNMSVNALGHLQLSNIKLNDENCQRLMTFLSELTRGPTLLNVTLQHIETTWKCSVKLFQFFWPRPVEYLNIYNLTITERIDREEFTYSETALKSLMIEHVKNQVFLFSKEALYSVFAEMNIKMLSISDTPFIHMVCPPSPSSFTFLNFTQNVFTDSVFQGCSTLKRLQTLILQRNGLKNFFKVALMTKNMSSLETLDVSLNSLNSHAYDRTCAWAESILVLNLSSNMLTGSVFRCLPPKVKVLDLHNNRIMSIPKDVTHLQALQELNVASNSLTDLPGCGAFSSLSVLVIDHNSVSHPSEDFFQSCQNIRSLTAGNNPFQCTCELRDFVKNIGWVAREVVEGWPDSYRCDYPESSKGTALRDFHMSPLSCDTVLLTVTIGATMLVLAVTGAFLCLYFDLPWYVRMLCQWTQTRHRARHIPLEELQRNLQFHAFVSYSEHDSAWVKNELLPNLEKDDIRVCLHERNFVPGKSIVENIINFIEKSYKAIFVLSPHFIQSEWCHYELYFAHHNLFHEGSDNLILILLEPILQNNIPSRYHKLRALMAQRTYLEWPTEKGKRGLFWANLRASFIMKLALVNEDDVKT

Regarding “-fM-BacSp222 (from UniProt A0A0P0C3P7 2-50) (peptide)”, the TNF in the medium (ELISA) of P388.D1 cells, 1 µM -fM-BacSp222, 6 h, without antagonist was 257 pg/mL. For-MAGLLRFLLSKGRALYNWAK(Suc)SHVGKVWEWLKSGATYEQIKEWIENALGWR [suc-K20-BacSp222]: the TNF in the medium (ELISA) of P388.D1 cells, 1 µM suc-K20-BacSp222, 6 h, without antagonist was 213 pg/mL and the TNF in the medium (ELISA) of RAW 264.7 cells, 1 µM suc-K20-BacSp222, 6 h, without antagonist was determined as 1280 pg/mL. For-MAGLLRFLLSKGRALYNWAKSHVGKVWEWLKSGATYEQIKEWIENALGWR [BacSp222 bacteriocin] gave a TNF in the medium (ELISA) of P388.D1 cells, 1 µM BacSp222, 6 h, without antagonist of 252 pg/mL and a TNF in the medium (ELISA) of RAW 264.7 cells, 1 µM BacSp222, 6 h, without antagonist of 976 pg/mL.
